Experimental data from patent US20260117259A1.
“And” between values parts separate entries of the source, which are not always exact repeats. Equal values may be shown once. Read-outs that look alike come from different tables or passages of the source.

Experiments:
[1] = biological target: 16055-ConM-v8.1ds SOSIP trimer (HIV-1); assay: flow cytometry, primary murine B cells edited in the HCDR3, labeled 16055-ConM-v8.1ds SOSIP against surface IgM
[2] = biological target: CRF250-SOSIP, soluble HIV-1 envelope glycoprotein trimer (SOSIP.v7 based on the CRF250 HIV-1 isolate) (HIV-1); assay: flow cytometry of primary murine B cells edited at native loci, HDRT as dsDNA, double staining with CRF250 SOSIP-APC and CRF250 SOSIP-PE
[3] = biological target: CRF250-SOSIP, soluble HIV-1 envelope glycoprotein trimer (SOSIP.v7 based on the CRF250 HIV-1 isolate) (HIV-1); assay: flow cytometry of primary murine B cells edited at native loci, HDRT by AAV, double staining with CRF250 SOSIP-APC and CRF250 SOSIP-PE
[4] = biological target: CRF250-SOSIP, soluble HIV-1 envelope glycoprotein trimer (SOSIP.v7 based on the CRF250 HIV-1 isolate) (HIV-1); assay: flow cytometry of edited Jeko-1 cells, HDRT by AAV, double staining with CRF250 SOSIP-APC and CRF250 SOSIP-PE
[5] = biological target: CRF250-SOSIP, soluble HIV-1 envelope glycoprotein trimer (SOSIP.v7 based on the CRF250 HIV-1 isolate) (HIV-1); assay: flow cytometry of Jeko-1 cells edited at the native heavy-chain locus, double staining with CRF250 SOSIP-APC and CRF250 SOSIP-PE
[6] = biological target: CRF250-SOSIP, soluble HIV-1 envelope glycoprotein trimer (SOSIP.v7 based on the CRF250 HIV-1 isolate) (HIV-1); assay: flow cytometry of Jeko-1 cells edited with gRNA targeting JH6, staining with CRF250 SOSIP-APC against anti-IgM
[7] = biological target: CRF250-SOSIP, soluble HIV-1 envelope glycoprotein trimer (SOSIP.v7 based on the CRF250 HIV-1 isolate) (HIV-1); assay: flow cytometry of edited Jeko-1 cells, HDRT as dsDNA, double staining with CRF250 SOSIP-APC and CRF250 SOSIP-PE
[8] = biological target: CRF250-SOSIP, soluble HIV-1 envelope glycoprotein trimer (SOSIP.v7 based on the CRF250 HIV-1 isolate) (HIV-1)
[9] = biological target: CRF250-SOSIP, soluble HIV-1 envelope glycoprotein trimer (SOSIP.v7 based on the CRF250 HIV-1 isolate) (HIV-1); remark: listed apart in the source
[10] = biological target: SOSIP; assay: flow cytometry, APC-labeled SOSIP trimer against anti-IgM
[11] = biological target: CRF250-SOSIP, soluble HIV-1 envelope glycoprotein trimer (SOSIP.v7 based on the CRF250 HIV-1 isolate) (HIV-1); assay: flow cytometry of control primary murine B cells (RNP of the intron approach without HDRT), double staining with CRF250 SOSIP-APC and CRF250 SOSIP-PE
[12] = biological target: CRF250-SOSIP, soluble HIV-1 envelope glycoprotein trimer (SOSIP.v7 based on the CRF250 HIV-1 isolate) (HIV-1); assay: flow cytometry of control primary murine B cells (RNP without HDRT), upper row (IgH gRNAs), double staining with CRF250 SOSIP-APC and CRF250 SOSIP-PE
[13] = biological target: CRF250-SOSIP, soluble HIV-1 envelope glycoprotein trimer (SOSIP.v7 based on the CRF250 HIV-1 isolate) (HIV-1); assay: flow cytometry of control primary murine B cells (RNP without HDRT), double staining with CRF250 SOSIP-APC and CRF250 SOSIP-PE
[14] = biological target: CRF250-SOSIP, soluble HIV-1 envelope glycoprotein trimer (SOSIP.v7 based on the CRF250 HIV-1 isolate) (HIV-1); assay: flow cytometry of control primary murine B cells (RNP without HDRT), lower rows (IgK gRNAs), double staining with CRF250 SOSIP-APC and CRF250 SOSIP-PE
[15] = biological target: CRF250-SOSIP, soluble HIV-1 envelope glycoprotein trimer (SOSIP.v7 based on the CRF250 HIV-1 isolate) (HIV-1); assay: flow cytometry of control Jeko-1 cells (RNP without HDRT), double staining with CRF250 SOSIP-APC and CRF250 SOSIP-PE
[16] = biological target: CRF250-SOSIP, soluble HIV-1 envelope glycoprotein trimer (SOSIP.v7 based on the CRF250 HIV-1 isolate) (HIV-1); assay: flow cytometry of control primary murine B cells (RNP without HDRT), double staining with CRF250 SOSIP-APC and CRF250 SOSIP-FITC
[17] = biological target: CRF250-SOSIP, soluble HIV-1 envelope glycoprotein trimer (SOSIP.v7 based on the CRF250 HIV-1 isolate) (HIV-1); assay: flow cytometry of control Jeko-1 cells (RNP without HDRT), double staining with CRF250 SOSIP-APC and CRF250 SOSIP-PE; remark: listed apart in the source
[18] = biological target: CRF250-SOSIP, soluble HIV-1 envelope glycoprotein trimer (SOSIP.v7 based on the CRF250 HIV-1 isolate) (HIV-1); assay: flow cytometry of Jeko-1 cells edited at the native heavy and kappa loci, double staining with CRF250 SOSIP-APC and CRF250 SOSIP-PE

“B-cell receptors of primary murine B cells edited to express the HCDR3 of the predicted unmutated common ancestor of the VRC26 family (VRC26-UCA) (antibody)” showed a % of cells in the SOSIP gate [1] of 2.26%.

In the case of “VRC26.25-y heavy and light chain variable genes introduced at the native loci of primary murine B cells (B-cell receptor) (antibody)”, the % of cells in the SOSIP-positive gate [2] is reported as 1.78% and the % of cells in the SOSIP-positive gate [3] is reported as 7.55%.

In the case of “10-1074 heavy and light chain variable genes introduced at the native heavy and kappa loci of primar (antibody)”, the % of cells in the SOSIP-positive gate [2] is reported as 0.95% and the % of cells in the SOSIP-positive gate [3] is reported as 2.38%.

“VRC26.25 heavy-chain variable gene introduced at the native heavy-chain locus of Jeko-1 cells (B-cell receptor on the cell surface) (antibody)” showed a % of cells in the SOSIP-positive gate [4] of 37.8%, a % of cells in the SOSIP-positive gate [5] of 7.12% and a % of cells in the SOSIP-positive gate [6] of 5.24%. For the same substance, the % of cells in the SOSIP-positive gate [7] was 7.12% and the % of cells in the SOSIP-positive gate [8] was 4.43% and 1.12%.

For “VRC26.25-y heavy chain alone introduced into primary murine B cells (B-cell receptor with endogenous murine light chains) (antibody)”, the % of cells in the SOSIP-positive gate [9] was 1.59% and 1.47% and 1%.

Work on “B-cell receptors of primary murine B cells edited to express the PG9 HCDR3 (antibody)” yielded a % of cells in the SOSIP gate [1] of 1.49%.

“B-cell receptors of primary murine B cells edited to express the PG16 HCDR3 (antibody)” was tested, and the % of cells in the SOSIP gate [1] was 1.02%.

Substance Negative control (antibody) has a % of cells above the SOSIP gate line [10] of 0.12%.

No HDRT (antibody) showed a % of cells in the SOSIP-positive gate [11] of 0.58%, a % of cells in the SOSIP-positive gate [12] of 0.44% and a % of cells in the SOSIP-positive gate [13] of 0.34%. It also gave a % of cells in the SOSIP-positive gate [14] of 0.45%, a % of cells in the SOSIP-positive gate [15] of 0.12% and a % of cells in the SOSIP-positive gate [16] of 0.17%. The % of cells in the SOSIP-positive gate [17] was 0.24%.

In the case of “10-1074 heavy and light chain variable genes introduced at the native heavy and kappa loci of Jeko-1 (antibody)”, the % of cells in the SOSIP-positive gate [18] is reported as 3.09%, the % of cells in the SOSIP-positive gate [4] is reported as 11.1% and the % of cells in the SOSIP-positive gate [7] is reported as 3.05%.
